Test results published in paper PMC2698432.

Key:
[1] = molecular target: SarZ C13S (Staphylococcus aureus, UniProt Q5HDG9 1-148, C13S); assay: EMSA
[2] = molecular target: T1, SarZ (Staphylococcus aureus, UniProt Q5HDG9 1-148); assay: EMSA
T1 sequence: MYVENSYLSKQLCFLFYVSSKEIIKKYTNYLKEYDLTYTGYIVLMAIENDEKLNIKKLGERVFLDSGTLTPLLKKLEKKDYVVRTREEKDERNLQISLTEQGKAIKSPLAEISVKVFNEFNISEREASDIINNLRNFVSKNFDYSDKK

B1: ohr promoter fragment (ohr1/ohr2) (dsDNA)
DNA 1: TTTTCGAATGGGTAAAGCATAAATGTATTTTAAATTAGGAGGTTATAAGT
DNA 2: ACTTATAACCTCCTAATTTAAAATACATTTATGCTTTACCCATTCGAAAA
[1]
  binding result: binds
[2]
  binding result: binds
